Experimental data: PMC8351736 (Molecular Biology of the Cell, 2021)
Blank lines part the entries; values can stand above or below the binder they belong to.

What was measured:
[1] = molecular target: T1, 6-histidine-tagged Tda2 (His-Tda2) (S. cerevisiae, UniProt P40045 2-126); experiment: pull-down
T1 sequence: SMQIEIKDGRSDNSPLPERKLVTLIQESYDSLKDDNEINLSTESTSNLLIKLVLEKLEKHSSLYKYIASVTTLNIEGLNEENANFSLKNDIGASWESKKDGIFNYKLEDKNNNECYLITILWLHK

[2] = molecular target: T2, 6-histidine-tagged actin capping protein (His-Cap1/2 heterodimer) (S. cerevisiae, UniProt P28495 1-268; P13517 1-287); experiment: pull-down
T2 sequence (looked up) 1: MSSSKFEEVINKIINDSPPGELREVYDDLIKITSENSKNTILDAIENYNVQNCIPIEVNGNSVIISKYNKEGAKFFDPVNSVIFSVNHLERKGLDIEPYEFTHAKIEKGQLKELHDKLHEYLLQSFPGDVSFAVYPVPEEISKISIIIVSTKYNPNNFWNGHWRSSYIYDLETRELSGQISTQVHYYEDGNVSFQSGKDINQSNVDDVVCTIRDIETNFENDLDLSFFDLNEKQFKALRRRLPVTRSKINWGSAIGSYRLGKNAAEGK
T2 sequence (looked up) 2: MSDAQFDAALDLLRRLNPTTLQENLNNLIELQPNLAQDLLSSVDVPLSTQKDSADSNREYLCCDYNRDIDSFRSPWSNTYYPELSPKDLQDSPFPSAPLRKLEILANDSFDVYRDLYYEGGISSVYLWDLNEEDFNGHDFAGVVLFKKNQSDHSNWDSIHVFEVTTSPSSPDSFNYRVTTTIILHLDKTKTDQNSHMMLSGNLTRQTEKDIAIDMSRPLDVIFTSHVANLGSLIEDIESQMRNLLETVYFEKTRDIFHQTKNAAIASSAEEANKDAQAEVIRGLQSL

binding result [1]: binds
Binder: KLPSKVASVEKIEEDDNTNKIEIANNWNVSSSFSKEKVLIDTTPGE (domain or fragment, S. cerevisiae, UniProt P40563 510-555, looked up) [GST-Aim21^510-555 F533A]

binding result [2]: binds
B1: Aim21^1-535-GST (domain or fragment, S. cerevisiae, UniProt P40563 1-535, looked up)
chain: MPSEVTPKVPERPSRRKTSELFPLSGSESGDIKANSEPPTPAGTPNVPTRRPILKAKTMTSFESGMDQESLPKVPLQRPVRRSTTEELNNVMNNTSKELEEIESLISKHNIHNVSRKKSPTSVEEGKVAAIHQNGQRSASDNKTSTNPSPLEKNEHEGAEGNESAISPSNLVNKSNNEVTEHSDSEDLTEKQKVHAALDNEAGDRSHFEEKLIPGDMKVQVDVSKDVEEGSLNALPPSGITESDDKAEKFTKHPESSLEELQKHQEQQEEKIFQNPTDEESTTSLNEKQEGKDNMEVNSQPQGPSDTETVIAATSSNVPSQIASEEENDVPVIPRSRPKKDFEAHVQKEELPNTQEKRVSEECDSTLISTEEESKIPKIPSERPKRRAPPPVPKKPSSRIAAFQEMLQKQQQQDLHNNGNSSATTASADIAKKHTDSSITSDTTKADFTSKLNGLFALPGMVNPGQLPPSLEKKLSSPDTESKLGPQDQSQAKTGPLGGTRRGRGPRGRKLPSKVASVEKIEEDDNTNKIEIFNN
